In paper PMC5464773, “Epistatic mutations in PUMA BH3 drive an alternate binding mode to potently and selectively inhibit anti-apoptotic Bfl-1” (eLife, 2017):

Target: Myc-tagged Bfl-1 (human, UniProt Q16548 1-175)
Test: fluorescence polarisation; competition: 0–10 μM unlabeled peptide titrated into 50 nM c-myc-tagged receptor plus 25 nM fluoresceinated BIM; 25 mM Tris pH 7.8, 50 mM NaCl, 1 mM EDTA, 5% DMSO, 0.001% v/v Triton-X; 23°C, 3 hr; fit to a complete competitive binding model
Details: both partners purified

Sequence of Myc-tagged Bfl-1 (Q16548 whole entry): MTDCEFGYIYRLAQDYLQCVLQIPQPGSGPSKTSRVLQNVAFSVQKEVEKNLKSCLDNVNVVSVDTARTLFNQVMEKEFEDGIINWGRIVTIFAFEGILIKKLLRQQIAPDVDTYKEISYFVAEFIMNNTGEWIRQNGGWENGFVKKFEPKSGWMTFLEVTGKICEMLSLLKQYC

B1: BIM-FS2 (peptide)
chain: RPVIWIAQGLRRAGDEVNAYVAR
modifications: probably N-terminal acetyl and C-terminal amide; 23-mer 1f-4g assumed by analogy with PUMA/FS2; printed E2bV read as E2aV (2b is Ile in BIM, 2a is Glu and FS2 has Val at 2a); A2eA is no change / Myc …
**Q.** How did the Ki turn out when B1 was run?
**A.** 720 nM
